Data from patent US20260158147A1 (published 2026).

Molecular target: Pre-formed aBeta fibrils (UniProt P05067 672-713)
Assay: ELISA

B1: gantenerumab (antibody, V domains shown)
VH: QVELVESGGGLVQPGGSLRLSCAASGFTFSSYAMSWVRQAPGKGLEWVSAINASGTRTYYADSVKGRFTISRDNSKNTLYLQMNSLRAEDTAVYYCARGKGNTHKPYGYVRYFDVWGQGTLVTVSS
VL: DIVLTQSPATLSLSPGERATLSCRASQSVSSSYLAWYQQKPGQAPRLLIYGASSRATGVPARFSGSGSGTDFTLTISSLEPEDFATYYCLQIYNMPITFGQGTKVEIK
Work on B1 yielded an EC50 of 0.702 nM.
